In patent US20240400708A1:

How the values were obtained:
[1] = target: Feline FcRn complex (FcRn-alpha subunit and beta-microglobulin) (feline); experiment: SPR (Biacore), feline FcRn captured on SA chip, IgG flowed over, pH 6
[2] = target: Feline FcRn complex (FcRn-alpha subunit and beta-microglobulin) (feline); experiment: SPR (Biacore), feline FcRn captured on SA chip, IgG flowed over, pH 7.4

Binder | Kd [1] | Kd [2]
feline IgG1a Fc mutant S428L, S434Y (antibody, part only; not given: Variable domains, not shown: another chain or arm of the molecule; small tags and cut ends) constant: ASTTAPSVFPLAPSCGTTSGATVALACLVLGYFPEPVTVSWNSGALTSGVHTFPAVLQASGLYSLSSMVTVPSSRWLSDTFTCNVAHPPSNTKVDKTVRKTDHPPGPKPCDCPKCPPPEMLGGPSIFIFPPKPKDTLSISRTPEVTCLVVDLGPDDSDVQITWFVDNTQVYTAKTSPREEQFNSTYRVVSVLPILHQDWLKGKEFKCKVNSKSLPSPIERTISKAKGQPHEPQVYVLPPAQEELSRNKVSVTCLIKSFHPPDIAVEWEITGQPEPENNYRTTPPQLDSDGTYFVYSKLSVDRSHWQRGNTYTCSVLHEALHYHHTQKSLTQSPGK | 0.933 nM | 22.2 nM
feline IgG1a Fc mutant S428Y, S434R (antibody, part only; not given: Variable domains, not shown: another chain or arm of the molecule; small tags and cut ends) constant: ASTTAPSVFPLAPSCGTTSGATVALACLVLGYFPEPVTVSWNSGALTSGVHTFPAVLQASGLYSLSSMVTVPSSRWLSDTFTCNVAHPPSNTKVDKTVRKTDHPPGPKPCDCPKCPPPEMLGGPSIFIFPPKPKDTLSISRTPEVTCLVVDLGPDDSDVQITWFVDNTQVYTAKTSPREEQFNSTYRVVSVLPILHQDWLKGKEFKCKVNSKSLPSPIERTISKAKGQPHEPQVYVLPPAQEELSRNKVSVTCLIKSFHPPDIAVEWEITGQPEPENNYRTTPPQLDSDGTYFVYSKLSVDRSHWQRGNTYTCSVYHEALHRHHTQKSLTQSPGK | 3.85 nM | 
feline IgG1a Fc mutant S428Y, S434H (antibody, part only; not given: Variable domains, not shown: another chain or arm of the molecule; small tags and cut ends) constant: ASTTAPSVFPLAPSCGTTSGATVALACLVLGYFPEPVTVSWNSGALTSGVHTFPAVLQASGLYSLSSMVTVPSSRWLSDTFTCNVAHPPSNTKVDKTVRKTDHPPGPKPCDCPKCPPPEMLGGPSIFIFPPKPKDTLSISRTPEVTCLVVDLGPDDSDVQITWFVDNTQVYTAKTSPREEQFNSTYRVVSVLPILHQDWLKGKEFKCKVNSKSLPSPIERTISKAKGQPHEPQVYVLPPAQEELSRNKVSVTCLIKSFHPPDIAVEWEITGQPEPENNYRTTPPQLDSDGTYFVYSKLSVDRSHWQRGNTYTCSVYHEALHHHHTQKSLTQSPGK | 2.27 nM | 
feline IgG1a Fc mutant Q311R, S428Y (antibody, part only; not given: Variable domains, not shown: another chain or arm of the molecule; small tags and cut ends) constant: ASTTAPSVFPLAPSCGTTSGATVALACLVLGYFPEPVTVSWNSGALTSGVHTFPAVLQASGLYSLSSMVTVPSSRWLSDTFTCNVAHPPSNTKVDKTVRKTDHPPGPKPCDCPKCPPPEMLGGPSIFIFPPKPKDTLSISRTPEVTCLVVDLGPDDSDVQITWFVDNTQVYTAKTSPREEQFNSTYRVVSVLPILHRDWLKGKEFKCKVNSKSLPSPIERTISKAKGQPHEPQVYVLPPAQEELSRNKVSVTCLIKSFHPPDIAVEWEITGQPEPENNYRTTPPQLDSDGTYFVYSKLSVDRSHWQRGNTYTCSVYHEALHSHHTQKSLTQSPGK | 4.81 nM | 
feline IgG1a Fc mutant Q311M, S428Y (antibody, part only; not given: variable domains, not shown: another chain or arm of the molecule; small tags and cut ends) constant: ASTTAPSVFPLAPSCGTTSGATVALACLVLGYFPEPVTVSWNSGALTSGVHTFPAVLQASGLYSLSSMVTVPSSRWLSDTFTCNVAHPPSNTKVDKTVRKTDHPPGPKPCDCPKCPPPEMLGGPSIFIFPPKPKDTLSISRTPEVTCLVVDLGPDDSDVQITWFVDNTQVYTAKTSPREEQFNSTYRVVSVLPILHMDWLKGKEFKCKVNSKSLPSPIERTISKAKGQPHEPQVYVLPPAQEELSRNKVSVTCLIKSFHPPDIAVEWEITGQPEPENNYRTTPPQLDSDGTYFVYSKLSVDRSHWQRGNTYTCSVYHEALHSHHTQKSLTQSPGK | 5.72 nM | 
feline IgG1a Fc mutant S428L, S434H (antibody, part only; not given: Variable domains, not shown: another chain or arm of the molecule; small tags and cut ends) constant: ASTTAPSVFPLAPSCGTTSGATVALACLVLGYFPEPVTVSWNSGALTSGVHTFPAVLQASGLYSLSSMVTVPSSRWLSDTFTCNVAHPPSNTKVDKTVRKTDHPPGPKPCDCPKCPPPEMLGGPSIFIFPPKPKDTLSISRTPEVTCLVVDLGPDDSDVQITWFVDNTQVYTAKTSPREEQFNSTYRVVSVLPILHQDWLKGKEFKCKVNSKSLPSPIERTISKAKGQPHEPQVYVLPPAQEELSRNKVSVTCLIKSFHPPDIAVEWEITGQPEPENNYRTTPPQLDSDGTYFVYSKLSVDRSHWQRGNTYTCSVLHEALHHHHTQKSLTQSPGK | 2.58 nM | 43.9 nM
